“And” between values parts separate entries of the source, which are not always exact repeats. Identical values can stand only once.
Columns and labels:
[1] = system: MiaPACA-2 tumors microvasculature; assay: Tumor microvasculature quantification by CD31 immunostaining; format: in vivo, nude mice
Experimental: Tumors from MiaPACA-2 xenograft tumor model were OCT (Tissue-Tek®, Sakura) embedded and frozen. One cryosection (5 μm) corresponding to the central part of each tumor was analyzed. Sections were fixed in acetone/chloroform (1:1) at −20° C. for 5 min, were dried over night at room temperature, washed with PBS and treated for 10 min at 4° C. in a dark chamber with H2O2 (0.03%) in PBS. Then, sections were washed with PBS and blocked for 20 min at 4° C. using PBS-BSA (2%) plus rabbit serum (5%) (Vector) and with Avidin-biotin blocking solution (Dako) for 10 min each one at 4° C. Samples were incubated for 1 hour at room temperature with primary antibody; a monoclonal rat anti-mouse antibody directed against CD31 (dil 1:200, BD PharMingen) diluted in blocking buffer. After incubation sections were incubated with a polyclonal biotinylated anti-rat antibody as secondary antibody (dil 1:500, Vector) for 30 min at room temperature and were incubated with the ABC reagent (Pierce) for 30 min at room temperature. Finally, sections were incubated with NovaRed (Vector) for 20 min at 4° C., stained with hematoxilin Harris (Sigma) for 10 seconds and mounted using DPX non aqueous mounting medium (Sigma).
Angiogenesis quantification was measured using two criteria:
8 and 39 pictures per slice, depending on the size of tumours, were taken and analyzed using the NIH ImageJ imaging software.
Comparisons between groups were made using the two-tailed nonparametric Mann Whitney U test. Differences for which P value was less than 0.05 were considered statistically significant.
The inventors investigated whether the 5C3 would actually affect tumor angiogenesis in vivo. The evaluation of tumor angiogenesis was made based on the CD31 immunostaining and two analytics approximations: MicroVessel Density (M.V.D.) and the fractional area of vessels (A.A.).

murine S100A4 = target: T1, murine S100A4 (Mus musculus, UniProt P07091); assay: Western-blot of NIH-3T3 mouse fibroblast extract; format: binding
T1 construct: total extracts from tumor cell lines of different origins and the mouse embryonic fibroblast cell line NIH3T3; endogenous in cells; host or cells: NIH-3T3 mouse fibroblasts
Experimental: (§1) Cell and tumors samples were rinsed twice with PBS and immediately lysed with ice cold Cell Lysis Buffer (150 mM NaCl, 1% IGEPAL CA630, 5 mM EDTA, 100 μg/mL PMSF, 1 mM Na3VO4, 1 mM NaF and 50 mM Tris pH 7.4). Lysates were cleared by centrifugation and the protein concentration was quantified with the Bradford reagent (Bio-Rad). Total extracts (50 μg) were resolved in a 12% SDS-polyacrilamide gel (PAGE) electrophoresis under reduced conditions and transferred to BioTrace™ PVDF membranes (PALL corporation). Membranes were blocked for 1 hour in TBS plus 0.1% Tween-20 with 5% skimmed dried milk, incubated overnight with the relevant primary antibody and then with the secondary antibodies for 1 hour in blocking buffer, washing three times for 10 min in TBS plus 0.1% Tween-20 after each incubation. Signals were developed using the ECL™ Western Blotting Detection Reagents (Amersham) and exposed to Hyperfilm™ ECL (Amersham).

Human S100P = target: T2, Human S100P (Homo sapiens, UniProt P25815); assay: ELISA specificity (reaction pattern of mAb); format: binding; design: key: ++++ positive reaction; − no reaction
T2 construct: made in house
T2 sequence (P25815 1-95): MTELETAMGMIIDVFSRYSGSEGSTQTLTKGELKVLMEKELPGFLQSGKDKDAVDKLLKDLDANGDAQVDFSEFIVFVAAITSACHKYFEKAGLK

Human S100A4 [2] = target: T3, Human S100A4 (Homo sapiens, UniProt P26447); assay: Western-blot of cell and tumor extracts; format: binding; design: Levels of S100A4 expression in total extracts from tumor cell lines of different origins; endogenous in cells; host or cells: human tumour cell lines (MiaPACA-2, Panc1, BxPC3, Colo 205, MDA-MB-231 and others) and xenograft tumours from HCT116, MiaPACA-2, BxPC3; conditions: denaturalized protein, reduced conditions
Experimental: as §1
Target sequence in this assay (P26447 whole entry): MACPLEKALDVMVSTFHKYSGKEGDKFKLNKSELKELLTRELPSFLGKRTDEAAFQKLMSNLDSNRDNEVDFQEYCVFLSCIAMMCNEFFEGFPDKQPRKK

Human S100A4 [3] = target: T3, Human S100A4; assay: ELISA specificity (reaction pattern of mAb); format: binding; design: the final full-length recombinant S100A4 protein has an additional Gly-Ser-His at the N-terminus; His tag (pET28a) (N); made in house; host or cells: E. coli Tuner (DE3); key to Reaction Pattern of mAb in ELISA, Human S100A4: ++++ positive reaction; − no reaction
Target sequence in this assay (P26447 with tags, fused parts or gaps): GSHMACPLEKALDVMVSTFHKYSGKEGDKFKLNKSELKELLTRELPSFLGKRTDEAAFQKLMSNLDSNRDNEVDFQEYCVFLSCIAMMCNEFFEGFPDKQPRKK

[4] = system: IL-8 release induced by S100A4 in THP-1 monocytes; assay: IL-8 release in THP-1 monocytes (sandwich ELISA); format: cell-based, human
Experimental: Cells of the human monocytic leukemia cell line THP-1 (ATCC) were grown in RPMI 1640 culture medium supplemented with 10% FCS and 1% penicillin/streptomycin, at 37° C. in 5% CO2 in a humidified incubator. Cells were plated at 5.0×10^5 cells/well. […] Anti-mouse IgG (Fc specific) was always added in all the cases for preventing the Fc receptor response. Cell culture supernatants were collected after 24 h and stored at −20° C. The levels of IL-8 were analyzed by sandwich ELISA.

[5] = system: circulant S100A4 protein in plasma; assay: Plasma quantification of S100A4 by sandwich ELISA in xenograft tumor models; format: in vivo, athymic mice; conditions: MiaPACA-2 and HCT116 xenograft tumor model, end of experiment
Experimental: Plasma levels of S100A4 were quantified by sandwich ELISA method. […] After removing the coating, plates were washed twice with PBS and incubated 1 h at 37° C. in blocking buffer (PBS containing 1% of skimmed milk).
Plasma samples diluted 1:4 in dilution buffer (PBS-4% BSA) were applied to the wells (100 μl/well) and were incubated 2 h at 37° C. Plates were washed eight times with washing buffer (PBS-0.1% of Tween-20) and Rabbit polyclonal anti-S100A4 secondary antibody (Dako) at the appropriate dilution was applied to the wells (100 μl/well) and were incubated for 1 h at 37° C.
Plates were washed eight times with washing buffer and Goat anti-Rabbit-IgG-peroxidase conjugated (Sigma) at the appropriate dilution was added to each well (100 μl/well) and were incubated 1 h at 37° C. […] Absorbance was ridden at 450 nm.
Standard curve for basal plasma samples (animals without tumor), was obtained by serial dilutions of murine recombinant S100A4 in dilution buffer. Standard curve for final plasma samples (animals with tumor at the end of the experiment) was obtained by serial dilutions of human recombinant S100A4 in dilution buffer.

[6] = group G2, MiaPACA-2 tumors, day 30
[7] = individual animal of G2 (5C3 treatment group), MiaPACA-2 tumor, day 30

T1 sequence (P07091 whole entry, one chain of several): as the sequence (P26447 whole entry) above, with C3R, K7E, M12I, S32T, L58V, F93C, Q97E counted along it

B1: 5C3: mouse monoclonal anti-S100A4 antibody, IgG1, from hybridoma ECACC 10022401; VL SEQ ID NO: 1, VH SEQ ID NO: 2 (antibody, V domains shown)
VH: EAQLQQSGAELVKPGASVKLSCTASGFNIQETYMHWVKQRPEQGLEWIGRIDPANGNTKDDPKFQGKASITVDTSSNTAYLQLSSLTSEDTAVYYCASSYAMDYWGQGTSVTVSS
VL: DVLMTQTPLSLPVSLGDQASISCRSSQSIVHSNGNTYLEWYLQKTGQSPELLIYKVSNRLSGVPDRFSGSGSGTDFTLKISRVEAEDLGVYYCFQGSHVPFTFGSGTKLEIK
modifications: VH region of the 5C3 monoclonal antibody; VL region of the 5C3 monoclonal antibody
[1]; MiaPACA-2 tumors
  reduction in microvessel density compared with control group (vehicle): approximately 40%
  reduction of the section area occupied by vessels compared with control group (vehicle): ~30%
[1]; [6]
  AA (%) Mean: 0.69%
  AA (%) Median: 0.59%
  MVD (v.p./mm^2) Mean: 27.42 v.p./mm^2
  MVD (v.p./mm^2) Median: 26.45 v.p./mm^2
[1]; [7]
  % A.A. (Fractional area of vessels): 1.14% and 1.26% and 0.53% (2×) and 0.41% and 0.66% and 0.72% and 0.32%
  M.V.D. (MicroVascular Density): 31.55 v.p./mm^2 and 44.37 v.p./mm^2 and 20.23 v.p./mm^2 and 16.81 v.p./mm^2 and 29.84 v.p./mm^2 and 36.23 v.p./mm^2 and 17.31 v.p./mm^2 and 23.05 v.p./mm^2
  No of vessels: 514 and 460 and 240 and 203 and 440 and 426 and 158 and 174
Murine S100A4
  reaction with murine S100A4 in Western-blot: also with murine S100A4
Human S100P
  Reaction Pattern of mAb in ELISA, Human S100P: −
Human S100A4 [2]
  reaction with human S100A4 in Western-blot: react with human S100A4
Human S100A4 [3]
  Reaction Pattern of mAb in ELISA, Human S100A4: ++++
Human S100A4 [3]; purified protein
  reaction with human S100A4 by ELISA: reacted
[4]; S100A4 3 μM, 24 h
  IL-8 release induced by S100A4: can be blocked
[4]; absence of S100A4, data not shown
  IL-8 levels in absence of S100A4: no effect
[5]
  S100A4 protein levels in plasma of treated animals (unbound to 5C3): blocks the totality of circulant S100A4 protein in plasma

From patent US9657092B2, “S100A4 antibodies and therapeutic uses thereof” (LYKERA BIOMED SA, priority 2010, dated 2017)
